# How the values were obtained:
# [1] = molecular target: CD38 on the surface of the HCL cell line JOK-1 and its derivatives (JOK-Empty, JOK-RhoH, JOK-CD38-WT) (human) (UniProt P28907); assay: flow cytometry, FITC-IB6 on JOK-Empty cells (RhoH not induced), mean of 4 experiments
# [2] = molecular target: CD38 on the surface of the HCL cell line JOK-1 and its derivatives (JOK-Empty, JOK-RhoH, JOK-CD38-WT) (human) (UniProt P28907); assay: flow cytometry, FITC-IB6 on JOK-RhoH cells (RhoH induced, lower CD38 expression), mean of 4 experiments
substance,measurement,setting,value
FITC-conjugated version of the monoclonal antibody IB6 directed against CD38 (Miltenyi Biotec),mean fluorescence intensity (after subtraction of isotype control),[1],71.8
same,mean fluorescence intensity (after subtraction of isotype control),[2],19.7

# From US20170074883A1
